Assay [1] addresses T1, EphA3 expressed on the surface of B16 mouse melanoma cells (mouse, UniProt P29319 21-983).
T1 construct: whole, on cells; Endogenous EphA3 of a tumor cell line known to express EphA3; also called B16-F10
T1 sequence (looked up): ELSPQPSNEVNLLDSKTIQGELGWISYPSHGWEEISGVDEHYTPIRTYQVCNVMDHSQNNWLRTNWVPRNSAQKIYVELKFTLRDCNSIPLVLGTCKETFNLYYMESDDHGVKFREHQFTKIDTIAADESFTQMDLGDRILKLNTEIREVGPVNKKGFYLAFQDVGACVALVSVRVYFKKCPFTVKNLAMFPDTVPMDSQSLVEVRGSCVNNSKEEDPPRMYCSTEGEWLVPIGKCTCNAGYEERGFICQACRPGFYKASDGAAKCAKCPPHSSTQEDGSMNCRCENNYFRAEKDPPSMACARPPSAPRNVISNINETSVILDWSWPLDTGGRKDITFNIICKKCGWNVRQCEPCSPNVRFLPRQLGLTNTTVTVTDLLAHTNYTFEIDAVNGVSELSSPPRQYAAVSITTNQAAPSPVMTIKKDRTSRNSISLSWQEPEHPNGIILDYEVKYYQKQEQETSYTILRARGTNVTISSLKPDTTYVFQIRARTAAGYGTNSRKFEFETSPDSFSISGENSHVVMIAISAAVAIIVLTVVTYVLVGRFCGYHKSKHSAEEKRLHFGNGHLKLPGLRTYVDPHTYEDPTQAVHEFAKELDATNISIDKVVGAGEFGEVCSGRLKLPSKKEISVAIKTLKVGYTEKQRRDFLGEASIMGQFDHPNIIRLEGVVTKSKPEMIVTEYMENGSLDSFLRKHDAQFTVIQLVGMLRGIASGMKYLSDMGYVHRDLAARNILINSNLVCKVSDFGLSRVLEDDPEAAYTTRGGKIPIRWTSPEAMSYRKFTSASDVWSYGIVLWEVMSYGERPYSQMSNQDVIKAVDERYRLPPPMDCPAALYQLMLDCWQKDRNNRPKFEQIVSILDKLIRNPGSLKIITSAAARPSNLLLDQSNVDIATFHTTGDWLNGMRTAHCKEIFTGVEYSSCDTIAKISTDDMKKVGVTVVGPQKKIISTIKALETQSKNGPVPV
The experiment in a line: flow cytometry on live B16 cells, 5 ug/ml IgG, anti-human IgG phycoerythrin conjugate [B16]. From the text: (§1) B16, SKme128, and LnCAP cells were blocked with 2% BSA and rat IgG and probed with engineered anti-EphA3 IgG, chimeric IIIA4 IgG or an isotype control IgG. Bound antibody was detected by an anti-human IgG Phycoerythrin conjugate using a Facs Caliber flow cytometry (BD). Dead cells were excluded by propidium iodide staining For each graph, the control antibody profile is the left-most curve shown in the graph.
(§2) Typically, 3×10⁶ cells of SKme128, LnCAP and B16-F10 were collected by centrifugation at 3000 rpm for 3 minutes. Media were removed and the cells blocked with 2% BSA in PBS for 30 minutes at 4° C. followed by a second block with 10 μg/ml rat IgG for 30 minutes at 4° C. Cells were pelleted, re-suspended in 1.5 ml PBS and divided into 500 μl aliquots. Each aliquot was probed separately with 5 μg/ml of control IgG, humaneered IgG or chimeric IIIA4 IgG for 45 minutes at 4° C. The samples were washed once in PBS and anti-human IgG-phycoerythrin-conjugate was added. After 45 minutes, cells were washed once, re-suspended in PBS and analyzed by flow cytometry using a FACS Caliber flow cytometery. Propidium iodide was added just prior to analysis to exclude dead cells.
(§3) The exemplary engineered antibody was also tested for binding to EphA3 expressed on the surface of live cells. […] Bound antibody was detected using flow cytometry by an anti-human IgG phycoerythrin conjugate (FIG. 5). […]
(In general: In flow cytometry, cells or beads pass a laser one at a time.)

The target of assay [2] is T2, EphA3-Fc recombinant fusion protein (UniProt P29320 21-541, limits assumed).
T2 construct: also called the antigen
T2 sequence (looked up): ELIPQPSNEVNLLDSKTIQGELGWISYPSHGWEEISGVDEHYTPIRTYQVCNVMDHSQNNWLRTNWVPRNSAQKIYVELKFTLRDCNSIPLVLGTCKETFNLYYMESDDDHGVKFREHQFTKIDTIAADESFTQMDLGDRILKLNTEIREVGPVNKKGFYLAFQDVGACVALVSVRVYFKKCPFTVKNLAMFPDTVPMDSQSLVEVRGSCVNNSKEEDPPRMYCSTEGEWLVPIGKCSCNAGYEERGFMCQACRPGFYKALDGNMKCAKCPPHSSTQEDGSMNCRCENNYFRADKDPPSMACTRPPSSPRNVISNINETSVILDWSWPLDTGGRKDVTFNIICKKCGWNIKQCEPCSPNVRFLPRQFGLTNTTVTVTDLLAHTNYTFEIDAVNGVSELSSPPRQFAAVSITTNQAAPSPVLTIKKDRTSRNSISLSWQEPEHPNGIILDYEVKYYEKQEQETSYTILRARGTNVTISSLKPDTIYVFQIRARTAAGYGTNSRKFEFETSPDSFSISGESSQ
The experiment in a line: ELISA, plate coated with EphA3-Fc, detection with anti-human kappa chain HRP conjugate, A450. From the text:
A full-length antibody (IgG1κ) was constructed, expressed from CHO cells and purified by Protein A affinity chromatography. ELISA plates were coated with EphA3-Fc and binding of cIIIA4 IgG, an exemplary engineered IgG, and a control IgG1 were compared (FIG. 3). The EC₅₀ in this assay was approximately three-fold lower for the engineered IgG than for the original chimeric antibody.
Background: ELISA stands for enzyme-linked immunosorbent assay.

The target of assay [3] is T3, EphA3 expressed on the surface of human cells (SKmel28 human melanoma, LnCAP prostate cancer line, primary … (human, UniProt P29320 21-983)).
T3 construct: whole, on cells; It gives no species for LnCAP, and the leukemia cells come from patients; also called SKme128; primary leukemia cells expressing EphA3
T3 sequence (looked up): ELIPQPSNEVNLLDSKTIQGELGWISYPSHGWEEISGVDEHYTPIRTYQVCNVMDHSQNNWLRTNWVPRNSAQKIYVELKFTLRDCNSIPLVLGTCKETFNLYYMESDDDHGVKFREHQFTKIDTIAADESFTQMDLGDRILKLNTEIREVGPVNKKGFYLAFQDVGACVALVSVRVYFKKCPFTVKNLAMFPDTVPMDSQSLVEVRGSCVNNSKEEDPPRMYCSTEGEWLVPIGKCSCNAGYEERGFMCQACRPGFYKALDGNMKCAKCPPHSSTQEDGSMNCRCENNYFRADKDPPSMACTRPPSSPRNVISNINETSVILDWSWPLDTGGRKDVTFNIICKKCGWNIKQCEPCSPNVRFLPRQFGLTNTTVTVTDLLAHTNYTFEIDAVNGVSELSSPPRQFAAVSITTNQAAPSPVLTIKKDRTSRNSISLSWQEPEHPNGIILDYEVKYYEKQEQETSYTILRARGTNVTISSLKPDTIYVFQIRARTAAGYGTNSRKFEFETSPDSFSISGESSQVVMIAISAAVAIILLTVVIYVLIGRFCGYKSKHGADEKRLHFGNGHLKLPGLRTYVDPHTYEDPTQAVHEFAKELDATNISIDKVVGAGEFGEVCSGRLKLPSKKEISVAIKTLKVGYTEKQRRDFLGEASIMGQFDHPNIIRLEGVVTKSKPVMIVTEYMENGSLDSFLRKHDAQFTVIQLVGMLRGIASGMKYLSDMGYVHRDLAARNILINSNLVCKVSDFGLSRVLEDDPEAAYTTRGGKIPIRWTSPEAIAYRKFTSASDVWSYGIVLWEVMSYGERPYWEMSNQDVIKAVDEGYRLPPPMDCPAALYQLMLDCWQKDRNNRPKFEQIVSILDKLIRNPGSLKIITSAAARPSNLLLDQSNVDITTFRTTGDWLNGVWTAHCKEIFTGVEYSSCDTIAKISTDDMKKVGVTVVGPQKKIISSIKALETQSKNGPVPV
The experiment in a line: flow cytometry on live SKmel-28 cells, 5 ug/ml IgG, anti-human IgG phycoerythrin conjugate [SKmel-28].
From the text: as §1, §2, §3

Assay [4] addresses T2, EphA3-Fc recombinant fusion protein. The experiment in a line: SPR (Biacore), 25 C, low density surface, 1:1 model. How it is done: (§4) Binding kinetics of two engineered Fabs and reference Fab FA106 were analyzed using a Biacore. The three Fabs were diluted from the starting concentration of 500 nM to 100 nM and further tested in a three-fold dilution series using PBS, pH 7.4 with 0.005% Tween-20 and 0.1 mg/ml BSA. Each of the five concentrations was tested three times over the three different density surfaces. Assays were run at 25° C. The response data from each surface were fit to a 1:1 interaction model.

The target is the same in assay [5]. The experiment in a line: SPR (Biacore), 25 C, high density surface, 1:1 model. Here is the method:
as §4
A general note: SPR reads the build-up and loss of mass on a sensor chip optically.

Assay [6] has the same target. The experiment in a line: SPR (Biacore), 25 C, medium density surface, 1:1 model. How it is done: as §4
The target is the same in assay [7]. The experiment in a line: SPR (Biacore), 25 C, average of three surface densities, 1:1 model. Here is the method:
as §4

Assay [8] has the same target. The experiment in a line: SPR (Biacore), 25 C, low density surface, 1:1 model; low chip density. Here is the method: as §4
The target is the same in assay [9]. The experiment in a line: SPR (Biacore), 25 C, high density surface, 1:1 model; high chip density. Here is the method:
as §4

Assay [10] has the same target. The experiment in a line: SPR (Biacore), 25 C, medium density surface, 1:1 model; medium chip density. Here is the method:
as §4

What is called EC50 (read off the curve) is the concentration giving half of the maximal effect. The term Kd denotes the equilibrium constant for the complex coming apart. As usually defined, the kon is the rate constant with which the complex forms. As a reminder, the koff is the first-order rate constant of dissociation.

B1: Chimeric IIIA4 IgG (antibody, V domains shown)
VH: EVKLEESGAELVKPGSSVKLSCKASGYNFTSYWINWVRLRPGQGLEWIGDIYPGSGNTNYDEKFKRKATLTVDTSSSTAYMQLSSLASEDSALYYCTRSGYYEDFDSWGQGTTLIVSS
VL: DIVLTQTPSSLSASLEERVSLTCRASQEISGYLGWLQQKPDGTIKRLIYAASTLDSGVPKKFSGNRSGSEYSLTISSLESEDFADYYCVQYANYPYTFGGGTKLEIK
notes: also called original chimeric antibody
Consider B1, for which the binding result in assay [1] and in assay [3] was “binds” in each case. For the same molecule, in assay [2], the “EC50 (read off the curve)” value was ~200 ng/mL.

B2: optimized reference Fab FA106 (Fab, V domains shown)
VH: EVKLEESGAELVKPGSSVKLSCKASGYNFTSYWINWVRLRPGQGLEWIGDIYPGSGNTNYDEKFKRKATLTVDTSSSTAYMQLSSLASEDTAVYYCARSGYYEDFDSWGQGTTVTVSS
VL: DIVLTQTPSSLSASLEERVSLTCRASQEISGYLGWLQQKPDGTIKRLIYAASTLDSGVPKKFSGNRSGSEYSLTISSLESEDFATYYCVQYANYPYTFGQGTKLEIK
notes: Fab derived from FA4 with several framework residues changed to human germ-line; Expressed in E. coli
As to B2, the Kd in [4] came to 1.4 nM; in [5], 2.06 nM; in assay [6] it was 2.91 nM; in [7], 2.1 nM. Besides, the on-rate (kon) in assay [4] was found to be 4.1e+06 M⁻¹ s⁻¹; in assay [5], 1.67e+06 M⁻¹ s⁻¹; in assay [6], 611000 M⁻¹ s⁻¹; in assay [7] it was 2e+06 M⁻¹ s⁻¹. Besides, the koff came out at 0.003 s⁻¹ in assay [7], 0.0058 s⁻¹ in [8], 0.00345 s⁻¹ in [9] and 0.00178 s⁻¹ in [10].
